Measurements published in patent US20120093813A1.

Assays:
[1] = target: Notch1 chimeric antigen, Lin-A domain swapped with murine sequence (human; human with mouse Lin-A) (UniProt P46531); test: ELISA, relative to huN1-NRRHD
[2] = target: huN1-NRRHD Mutant 1457E/A (human) (UniProt P46531); test: ELISA, relative to huN1-NRRHD
[3] = target: huN1-NRRHD Mutant 1462K/A (human) (UniProt P46531); test: ELISA, relative to huN1-NRRHD
[4] = target: huN1-NRRHD Mutant 1463V/A (human) (UniProt P46531); test: ELISA, relative to huN1-NRRHD
[5] = target: huN1-NRRHD Mutant 1465S/N (human) (UniProt P46531); test: ELISA, relative to huN1-NRRHD
[6] = target: huN1-NRRHD Mutant 1466L/A (human) (UniProt P46531); test: ELISA, relative to huN1-NRRHD
[7] = target: huN1-NRRHD Mutant 1467Q/A (human) (UniProt P46531); test: ELISA, relative to huN1-NRRHD
[8] = target: Notch1 chimeric antigen, Lin-A domain swapped with murine sequence (human; human with mouse Lin-A) (UniProt P46531); test: ELISA on coated conditioned medium
[9] = target: huN1-NRRHD chimeric antigen, HD-C Subdomain swap 1 (to Notch2 sequence) (human; human with Notch2 residues) (UniProt P46531); test: ELISA on coated conditioned medium
[10] = target: huN1-NRRHD chimeric antigen, HD-C Subdomain swap 2 (to Notch2 sequence) (human; human with Notch2 residues) (UniProt P46531); test: ELISA on coated conditioned medium
[11] = target: huN1-NRRHD chimeric antigen, HD-C Subdomain swap 3 (to Notch2 sequence) (human; human with Notch2 residues) (UniProt P46531); test: ELISA on coated conditioned medium
[12] = target: huN1-NRRHD chimeric antigen, HD-C Subdomain swap 4 (to Notch2 sequence) (human; human with Notch2 residues) (UniProt P46531); test: ELISA on coated conditioned medium
[13] = target: huN1-NRRHD chimeric antigen, HD-C Subdomain swap 5 (to Notch2 sequence) (human; human with Notch2 residues) (UniProt P46531); test: ELISA on coated conditioned medium

B1: mouse monoclonal antibody N248A (antibody, IgG1, V domains shown)
VH: QVQLQQSGAELMKPGASVKISCKATGYTFSNYWMEWVKQRPGHGLEWIGEILPGRGRTNYNENFKGKATFTADTSSNTVYMQLNSLTSEDSAVYYCARFHSSAYYYTMDYWGQRTSVTVSS
VL: QAVVTQESALTTSPGETVTLTCRSSTGAVTTSNYANWVQEKPDHLFTGLIGGTNNRAPGIPARFSGSLIGDKAALTITGAQTEDEAIYFCALWYSNHWVFGGGTKLTVL
B1 gave a Binding activity [1] of 11%, a Binding activity [2] of 112% and a Binding activity [3] of 85%. The Binding activity [4] was 6%, the Binding activity [5] was 8% and the Binding activity [6] was 1%. It also gave a Binding activity [7] of 4%, an ELISA reading [8] of 0.33 and an ELISA reading (Binding activity) [9] of 0.48. It also gave an ELISA reading (Binding activity) [10] of 2.76, an ELISA reading (Binding activity) [11] of 2.81 and an ELISA reading (Binding activity) [12] of 2.89. It also gave an ELISA reading (Binding activity) [13] of 1.48.
